Patent publication US20050036993A1, “Immune activation by double-stranded polynucleotides” (priority 1998, published 2005)

Test system: Stat 1 (Tyr 701), Stat 3 (Tyr 705)
Test: Western blot of phosphorylated Stat 1, Stat 3 and total Stat 1 in FRTL-5 cells
Assay type: cell-based, rat
Method: SDS-polyacrylamide gel electrophoresis and Western blotting—Transfected FRTL-5 cells or FRTL-5 cells treated with KIFN (100 U/ml protein) which had been grown in 100 mm dishes (Nalge Nunc International), were placed on ice before harvesting, washed with ice-cold Dulbecco's PBS (DPBS), released by gentle scraping with a rubber policeman, and collected by low-speed centrifugation at 833×g for 10 min in a Sorvall table-top centrifuge (rotor H-1000, Dupont Company, Wilmington Del.). After a second washing in DPBS, cells were resuspended in cold lysis buffer [50 mM HEPES pH 7.0,2 mM MgCl2; 250 mM NaCl; 0.1 mM EDTA; 0.1 mM EGTA; 1 mM DTT; 2 mM Na3VO4; 10 mM Na4P2O7; 10 mM NaF; 0.1% NP-40; 0.5 mM p-amidinophenyl methanesulfonyl fluoride hydrochloride (p-APMSF) plus a protease inhibitor cocktail ([…]; 2.5 mg/ml of antipain; 2.5 mg/ml of chymostatin; 0.25 mg/ml leupeptin; 0.25 mg/ml antipain]. The cells were allowed to lyse on ice for 60 min, after which they were vortexed vigorously and centrifuged at 4° C. and at 12,000 rpm in a microcentrifuge for 10 min. The supernatant was collected and frozen in aliquots at −70° C. […] The membrane was again washed and protein detected by incubation for 1 min with ECL detection reagent (Amersham, Arlington Heights, Ill.) followed by exposure to X-ray film. […]

B1: KIFN: K-interferon (gamma interferon, character lost), rat recombinant, 100 U/ml (protein, UniProt P01581 23-156, looked up)
Interferon gamma: QGTLIESLESLKNYFNSSSMDAMEGKSLLLDIWRNWQKDGNTKILESQIISFYLRLFEVLKDNQAISNNISVIESHLITNFFSNSKAKKDAFMSIAKFEVNNPQIQHKAVNELIRVIHQLSPESSLRKRKRSRC
phosphorylation of STAT 1 and STAT 3 (FRTL-5 cells, dsDNA within 6 hours of transfection): significantly lower and more delayed in time
total STAT 1 protein (readily measurable at 12 hours): greater and more advanced in time
